US20160039936A1, “FIBROBLAST GROWTH FACTOR RECEPTOR INHIBITION FOR THE TREATMENT OF DISEASE” (UNIVERSITY OF MIAMI, priority 2011, published 2016)

How the values were obtained:
FGFR = conditions: Mohammadi et al. 1998; Grand et al. 2004; cited from earlier work
isolated NRVM = experiment: Hypertrophic marker expression in NRVM (RT-PCR, α-actinin immunoblot); assay type: cell-based, rat; conditions: for α-actinin protein levels: 48 h, immunoblotting; for expression of ANP and BNP / expression of medium chain acyl-CoA dehydrogenase (MCAD) / expression of α-myosin heavy chain (α-MHC) / expression of β-myosin heavy chain (β-MHC): RT-PCR
Method: RNA was purified from isolated NRVM using the RNeasy kit (Qiagen), and from mouse cardiac and renal tissue using 1 ml per 100 mg tissue TRIzol (Invitrogen), following the manufacturers' protocol. Prior to RT-PCR, total RNA samples were digested with DNase I (Roche) and RNA was transcribed into cDNA using Superscript II (Invitrogen). For RT-PCR, 100 ng cDNA, AmpliTaq Gold DNA polymerase (Applied Biosystems) and sequence specific primers were used. 30 cycles (95° C., 5 minutes-53° C., 30 seconds-72° C., 30 seconds) were run on a GeneAmp PCR System 9700 (Applied Biosystems) and reactions were analyzed on a 2% agarose gel. Ethidium bromide signals were captured with a Bio-Rad Gel Doc XR system and quantified by densitometry using ImageJ software (NIH). Values were normalized to GAPDH signals and cDNAs from three independent experiments were analyzed. For nested PCR, 100 ng cDNA were used in the first run (15 cycles) with sequence specific outside primers. Five percent of the reaction was used as template for the second run (25 cycles) with sequence specific inside primers, and the total reaction was analyzed by agarose gel electrophoresis.
NRVM were scraped from a 6 cm-plate using 400 μl CHAPS extraction buffer [(20 mM Tris-HCl pH7.5, 500 mM NaCl, 0.5% CHAPS, protease inhibitor cocktail (Roche), protein phosphatase inhibitors (Sigma-Aldrich)] and incubated on ice for 15 minutes. The cell lysate was centrifuged at 14,000 rpm and 4° C. for 15 minutes and the supernatant boiled in sample buffer and analyzed by SDS-PAGE and immunoblotting as described before (Faul et al., Cell Biol., 169(3):415-424, 2005; Faul et al., Mol. Cell Biol., 27(23):8215-8227, 2007). For protein extraction from mouse hearts, tissue was isolated, minced and homogenized in CHAPS extraction buffer at 1:10 (w:v) and protein lysates were prepared as described above. Antibodies to sarcomeric α-actinin (EA-53; Sigma-Aldrich; 1:1000), total (Cell Signaling; 1:1000) and phospho-ERK (Cell Signaling; 1:1000), total and phospho-NFAT-c1 (Santa Cruz Biotechnology; 1:200), total and phospho-Akt (Cell Signaling; 1:1000 and 1:2000), and GAPDH (Abcam; 1:10,000) were used as primary antibodies and horseradish peroxidase conjugated goat-anti-mouse and goat-anti-rabbit (Promega; 1:20,000) were secondary antibodies.

FGFR4 = target: T1, FGFR4 (Rattus norvegicus, UniProt Q498D6); experiment: Binding of PLCγ to FGFR4 in NRVM (immunoprecipitation); assay type: cell-based; conditions: 30 minutes, vs PBS or FGF2
T1 construct: endogenous in cells; host or cells: isolated neonatal rat ventricular myocytes (NRVM)
Method: HEK293 cells in 10 cm-dishes were treated with growth factors for 30 minutes, cells were scraped using 1 ml IP buffer (50 mM Tris-HCl pH7.5, 150 mM NaCl, 5 mM MgCl2, 2 mM EGTA, 1% Triton X-100, 5% Glycerol, protease and phosphatase inhibitors), and protein lysates were prepared as described above. V5-tagged proteins were immunoprecipitated using 25 μl of anti-V5 agarose beads (Sigma-Aldrich). After 5 washes in IP buffer, proteins were eluted in 100 μl of sample buffer and analyzed by SDS-PAGE and immunoblotting. For endogenous immunoprecipitation studies from NRVM, cells in 10cm-dishes were treated with growth factors for 30 minutes. Some cells were pre-treated with FGFR4 blocking antibody at 10 μg/ml for 1 hour (human monoclonal, U3-11; U3Pharma). […] We added 50 μl of a 1:1 mix of Protein A on sepharose beads and Protein G on agarose beads that were previously equilibrated in RIPA buffer, followed by incubation at 4° C. under rotation for 2 hours, protein elution in sample buffer, and SDS-PAGE and Western blot analyses.

[1] = Pharmacokinetic study of FGF23 in rats; assay type: in vivo, rat
Method: High systemic levels of FGF23 results in left ventricular hypertrophy in mice. […] Therefore, we administered FGF23 intravenously to determine if systemically elevated FGF23 levels could also induce LVH. We injected 40 μg/kg of recombinant FGF23 dissolved in 200 μl of PBS into the tail vein of adult wild type mice twice daily for 5 days with eight hours between daily doses. The dose of FGF23 was chosen based on published reports in which a similar dose stimulated ERK phosphorylation and increased Egr-1 expression (Urakawa et al., Nature, 444(7120):770-774, […]). The frequency of injections was chosen based on a pharmacokinetic study of adult wild type rats in which we injected a single dose of 40 μg/kg of FGF23. […] Thus, we estimated that two daily injections of 40 μg/kg would provide elevated FGF23 levels for at least 8 hours per day in mice. Control animals underwent the same injection schedule using 200 μl of PBS alone. On the morning of day 6, blood was collected for assay of FGF23, mice were sacrificed and the hearts examined.

[2] = In vivo biological activity of FGF23 (serum phosphate); set-up: species or system rat; conditions: Sprague-Dawley rats, single i.v. 40 μg/kg, over 4 hours
Source text: We used recombinant mouse FGF23 (6His-tagged Tyr25-Val251 (Arg179Gln)), FGF2 (Ala11-Ser154), and FGF4 (Ala30-Leu202) proteins (R&D Systems). We chose the mutant form of FGF23 because it is resistant to furin protease-mediated degradation, which prolongs the protein's half-life.
We used recombinant mouse FGF23 (6His-tagged Tyr25-Val251 [Arg179Gln]; 26.1 kDa), and FGF2 (Ala11-Ser154; 16.2 kDa) (R&D Systems) as before (Faul et al., 2011).

HEK293 cells = experiment: FGF-FGFR-dependent signaling in HEK293 cells (Western blot, immunoprecipitation); assay type: cell-based; conditions: HEK293 expressing wild-type FGFR4, within 6 hours

T1 sequence (Q498D6 17-800): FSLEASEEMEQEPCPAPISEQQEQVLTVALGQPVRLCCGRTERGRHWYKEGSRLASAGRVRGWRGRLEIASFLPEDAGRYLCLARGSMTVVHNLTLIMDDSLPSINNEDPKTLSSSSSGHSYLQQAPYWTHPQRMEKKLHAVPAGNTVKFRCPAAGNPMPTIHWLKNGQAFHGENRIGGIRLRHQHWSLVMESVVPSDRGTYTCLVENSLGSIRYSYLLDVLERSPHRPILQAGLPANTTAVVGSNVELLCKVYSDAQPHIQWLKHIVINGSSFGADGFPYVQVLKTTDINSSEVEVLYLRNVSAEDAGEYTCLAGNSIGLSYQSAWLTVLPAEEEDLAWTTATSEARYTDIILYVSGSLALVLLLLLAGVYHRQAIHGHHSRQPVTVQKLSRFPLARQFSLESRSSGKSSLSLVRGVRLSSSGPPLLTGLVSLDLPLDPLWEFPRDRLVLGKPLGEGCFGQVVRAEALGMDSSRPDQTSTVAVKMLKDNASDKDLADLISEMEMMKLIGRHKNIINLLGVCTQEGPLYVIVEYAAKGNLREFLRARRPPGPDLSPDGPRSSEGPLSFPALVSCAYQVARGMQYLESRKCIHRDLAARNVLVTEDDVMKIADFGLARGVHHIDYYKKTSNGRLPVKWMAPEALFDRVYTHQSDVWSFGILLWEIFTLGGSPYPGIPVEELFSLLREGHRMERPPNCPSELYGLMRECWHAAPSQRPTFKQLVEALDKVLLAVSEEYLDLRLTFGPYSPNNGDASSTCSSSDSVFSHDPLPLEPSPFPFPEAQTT

CCN(CC)CCCCNc1ncc2cc(-c3cc(OC)cc(OC)c3)c(NC(=O)NC(C)(C)C)nc2n1 [PD173074]
phosphorylation of FGFR3 and FGFR4 (FGFR): inhibits

B1: FGF2: recombinant mouse FGF2 (Ala11-Ser154) (R&D Systems) (protein)
chain: ALPEDGGAAFPPGHFKDPKRLYCKNGGFFLRIHPDGRVDGVREKSDPHVKLQLQAEERGVVSIKGVCANRYLAMKEDGRLLASKCVTEECFFFERLESNNYNTYRSRKYSSWYVALKRTGQYKLGSKTGPGQKAILFLPMSAKS
α-actinin protein levels (isolated NRVM): increase
expression of ANP and BNP (isolated NRVM): increased
expression of medium chain acyl-CoA dehydrogenase (MCAD) (isolated NRVM): decreased
expression of α-myosin heavy chain (α-MHC) (isolated NRVM): decreased
expression of β-myosin heavy chain (β-MHC) (isolated NRVM): increased

B2: FGF23: recombinant mouse FGF23, 6His-tagged Tyr25-Val251 (Arg179Gln) (R&D Systems) (protein)
chain: YPDTSPLLGSNWGSLTHLYTATARTSYHLQIHRDGHVDGTPHQTIYSALMITSEDAGSVVITGAMTRRFLCMDLHGNIFGSLHFSPENCKFRQWTLENGYDVYLSQKHHYLVSLGRAKRIFQPGTNPPPFSQFLARRNEVPLLHFYTVRPRRHTQSAEDPPERDPLNVLKPRPRATPVPVSCSRELPSAEEGGPAASDPLGVLRRGRGDARGGAGGADRCRPFPRFV
modifications: left off: small tags and cut ends
α-actinin protein levels (isolated NRVM): increase
expression of ANP and BNP (isolated NRVM): increased
expression of medium chain acyl-CoA dehydrogenase (MCAD) (isolated NRVM): decreased
expression of α-myosin heavy chain (α-MHC) (isolated NRVM): decreased
expression of β-myosin heavy chain (β-MHC) (isolated NRVM): increased
levels of co-purified FGFR4 in anti-PLCγ eluates (FGFR4): elevated
half-life of circulating FGF23 ([1]; adult wild type rats, single dose of 40 μg/kg): 30 min
plasma levels ([1]; rats, single dose 40 μg/kg, four hours post injection): remained elevated above baseline
serum phosphate levels [2]: significantly decreased
RCAN1-4 levels (HEK293 cells): increases
